Test results reported in patent publication US20110275122A1.
Where “and” joins values, the source holds several entries; their conditions need not be identical. Equal entries are not always repeated. Where no end group is shown, it is not given here.

B1: SEQ ID NO: 225 (TPO-mimetic fusion protein of Table 13) (Fc fusion, not shown: a dimerising Fc or GST)
chain: LTMEGPTLRHWLAARATR
modifications: also: Fc fusion, side and linker not given here
B2: SEQ ID NO: 9 (TPO-mimetic fusion protein of Table 13) (Fc fusion, not shown: a dimerising Fc or GST)
chain: QGCSSGGPTLREWQQCRRMQHS
modifications: cysteine pairing not given here; also: fused to an Fc molecule, side and linker not given here
B3: SEQ ID NO: 171 (TPO-mimetic fusion protein of Table 13) (Fc fusion, not shown: a dimerising Fc or GST)
chain: WPMEGPTLRHWLAARAAR
modifications: also: Fc fusion, side and linker not given here
B4: SEQ ID NO: 128 (TPO-mimetic fusion protein of Table 13) (Fc fusion, not shown: a dimerising Fc or GST)
chain: YYLEGPTLRHWLAARAYL
modifications: also: Fc fusion, side and linker not given here
B5: SEQ ID NO: 117 (TPO-mimetic fusion protein of Table 13) (Fc fusion, not shown: a dimerising Fc or GST)
chain: SAIEGPTLRHWLAWRAML
modifications: also: Fc fusion, side and linker not given here
B6: SEQ ID NO: 115 (TPO-mimetic fusion protein of Table 13) (Fc fusion, not shown: a dimerising Fc or GST)
chain: WMMEGPTLRHWLAARARY
modifications: also: Fc fusion, side and linker not given here
B7: SEQ ID NO: 123 (TPO-mimetic fusion protein of Table 13) (Fc fusion, not shown: a dimerising Fc or GST)
chain: WVMEGPTLRHWLAARASL
modifications: also: Fc fusion, side and linker not given here
B8: SEQ ID NO: 149 (TPO-mimetic fusion protein of Table 13) (Fc fusion, not shown: a dimerising Fc or GST)
chain: AWMEGPTLRHWLAARAAY
modifications: also: Fc fusion, side and linker not given here
B9: SEQ ID NO: 241 (TPO-mimetic fusion protein of Table 13) (Fc fusion, not shown: a dimerising Fc or GST)
chain: ICTEGCTLRLWLAERSRV
modifications: cysteine pairing not given here; also: Fc fused at N- or C-terminus, side and linker not given here
B10: Fc-Loop-(SEQ ID NO: 454) (Fc fusion, part only; not given: Fc and insertion site, part only)
chain, part: CSSGGPTLREWQQCSRAQ
modifications: cysteine pairing not given here; also: peptide inserted in a loop of an Fc
B11: SEQ ID NO: 139 (TPO-mimetic fusion protein of Table 13) (Fc fusion, not shown: a dimerising Fc or GST)
chain: DAIEGPTLRLWLEARRKQ
modifications: also: Fc fusion, side and linker not given here
B12: SEQ ID NO: 103 (TPO-mimetic fusion protein of Table 13) (Fc fusion, not shown: a dimerising Fc or GST)
chain: YMMEGPTLRHWLATRAGR
modifications: also: Fc fusion, side and linker not given here
B13: SEQ ID NO: 11 (TPO-mimetic fusion protein of Table 13) (Fc fusion, not shown: a dimerising Fc or GST)
chain: QGCSWGGPTLKNWLQCVRAKHS
modifications: cysteine pairing not given here; also: fused to an Fc molecule, side and linker not given here
B14: Fc-Loop-(SEQ ID NO: 455) (Fc fusion, part only; not given: Fc and insertion site, part only)
chain, part: CSSGGPTLREWQQCQRAQ
modifications: cysteine pairing not given here; also: peptide inserted in a loop of an Fc
B15: Fc-Loop-(SEQ ID NO: 456) (Fc fusion, part only; not given: Fc and insertion site, part only)
chain, part: CSSGGPTLREWQQCGRAQ
modifications: cysteine pairing not given here; also: peptide inserted in a loop of an Fc
B16: SEQ ID NO: 163 (TPO-mimetic fusion protein of Table 13) (Fc fusion, not shown: a dimerising Fc or GST)
chain: HPIEGPTLRLWLAARARA
modifications: also: Fc fusion, side and linker not given here

Target: human mpl receptor (human) (UniProt P40238)
Assay: cell-based or functional assay

Pb EC50 | Binder
3.1 ng/mL | B1
0.44 ng/mL | B2
1.56 ng/mL | B3
1.82 ng/mL | B4
1.09 ng/mL | B5
1.43 ng/mL and 1.81 ng/mL | B6
2.08 ng/mL | B7
1.84 ng/mL | B8
1.83 ng/mL | B9
0.28 ng/mL | B10
1.89 ng/mL | B11
0.79 ng/mL | B12
4.01 ng/mL | B13
0.27 ng/mL | B14
2.31 ng/mL | B15
2.8 ng/mL | B16
